The RNAGym collection of RNA variant scans (doi:10.1073/pnas.2313332121)

B1: TPR t1 (parent)
chain: GACCAAUCUGCCCUCAGAGCUCGAGAACAUCUUCGGAUGCAGAGGAGGCAGGCUUCGGUGGCGCGAUAGCGCCAACGUCCUCAACCUCCAAUGCAUCCCACCACAUGAUGAUGCCUGAAGAGCCUUGGUUUUUUG

Variants of: B1
Test: polymerase ribozyme fitness, log enrichment relative to wild type (log ratio); higher = more active; in vitro selection for triplet polymerase activity
How it was run: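 A single round of triplicate in vitro selection, including frozen incubation at −7 °C, was applied to PCR-built, transcribed mutant libraries of each subunit of a heterodimeric triplet polymerase ribozyme. Illumina sequencing of input and output libraries retained genotypes with ≥10 input reads and ≥1 read per output. Fitness is the base-2 logarithm of genotype enrichment divided by wild-type enrichment, from inverse-variance-weighted replicate averages.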

Variant	polymerase ribozyme fitness (log ratio)
G47A G57U G69U G117A U133G	-1.83
G47C C72U A90G C123U	-1.64
G47A C88U C102U	-3.29
A46G G107A	-4.88
A46G C70U	-0.0806
G47A G113U C114A A121G	-1.76
A46U G48C G128U	-3.83
A46U C70U	-1.31
A46U C70A	-2.18
A46G G48A C64A	-6.8
G47C C56G	-1.79
A46U U59C U109A	-5.97
A46U U132A	-1.18
G47C C79U G93U	-3.38
A46G C56U G110U U116A	-2.84
A46C U78A	-0.208
G47C A90G G117C	-4.53
A46U C49G	-1.75
A46U C49A	-0.332
A46C G128C	-3.42
G47A A119U	-1.02
A46U G63U A83U G110U	-6.56
A46C C79G	-2.93
A46C C79A	-2.25

Variant	polymerase ribozyme fitness (log ratio)
G47A C49U G63C	-1.35
A46G C73A A108G	-2.82
A46G C62U G117U	-3.06
G47A G128A	-2.43
G47A C56U C73U C101U A119G G120U G127A	-1.08
G47C C98U C124G	-0.238
A46U C62U C86A A100U C104A G110C U134G	-5.64
A46C U55A G63C	-0.439
G47A U55G C70A C82U	-1.41
A46G C53A G127C	-1.2
A46G C86G C101A C114U	-4.69
A46U G71A C73A A91G	-5.51
A46C G69C U81C U112G	-4.07
G47A C49A G60C G128C	-4.7
G47C A83U	-1.11
G47A C104U	-1.4
A46G A68U C114G	-5.84
A46G G69C	-2.16
G47C C72U C85A C99G G110A	-7.27
G47C C85G	-2.21
A46C G77U A100C	-2.17
A46C C79A G120A	-1.25
A46U C88U	-1.61
A46C G60C	-0.75

Variant	polymerase ribozyme fitness (log ratio)
A46C C115G	-2.59
A46G C72A	0.745
A46G C88U	-0.84
G47A G110C	-4.91
A46U U87G G93A C98U	-1.2
G47A C94G C101U	-2.16
A46C C79U C101U G113U	-4.4
A46G G69A G110A	-4.77
A46C G61A C80A	-3.96
G47A C72U A121C U129A	0.0942
A46C G120C	1.36
A46U U78C C82G	-1.76
A46C C72A C123U	0.713
G47A A50G G113A	-2.34
G47A G61C U81C C86A U129C	-4.11
A46U C56G U78G C85U	-1.84
G47A U96A C98G	-6.21
G47A C56U U112A	0.663
G47A G48U	-1.13
G47A G48A	-1.62
A46C U126G	-2.07
A46U C64U C114U	-2.92
G47A U55G C85U	-1.22
A46G G58A A83C G107U A121C	-4.18

Variant	polymerase ribozyme fitness (log ratio)
G47C C102U	-2.99
G47A C101A	-1.93
G47A C101U	-1.23
A46C U81A G93U	-2.96
G47A A90G A103C G120C	-4.22
A46C C101G	-2.34
A46G G58U G69A G110A	-4.68
A46U G93A	-1.93
A46G G47U	-1.31
A46G G71A C80A U129C	-5.8
A46U A95G C115U G128A	-4.98
A46U G48U	-2.29
A46U C62A U133A	-2.52
A46U C82U G93U G110U	-3.55
G47A C82G	-1.3
A46U A74C U92C	-1.48
A46C C79A C85G	-5.69
G47A C62A G120A U126A	-3.07
A46U U87A	-0.324
G47C A121G	0.606
G47A C70U G77U G93A	-3.29
A46G U55C C70U A100U G127A	-2.53
G47A C53U A95G	-3.19
A46U C82A C86U G110U U131A	-4.27

Variant	polymerase ribozyme fitness (log ratio)
A46G C56A A84C C104A C115U A118U A119U	-3.57
A46C U87G A100U	-0.0504
A46U C62U A91U A103G U106A C114U	-5.16
A46U A84U A95U C102A	-4.22
A46U U131G	-1.62
G47A C53G C73U C86U	-0.0372
A46C G63C G93A U116A G120U G135U	-4.76
G47A C82U C86G	-0.151
G47A C89A	-4.43
G47C C80U	-3.51
G47A C86A	-0.754
A46U G71A C72G A119G	-1.69
A46G G63C	-1.22
A46G U106A	0.118
G47C C73G U81A	-2.91
A46U C73U C82U G93U G110U	-3.63
A46U G61U A111G	-0.291
G47A U54C U59A	-0.546
A46G U87C	0.254
A46U A84C C104A G128U	-4.76
A46U C80A	-4.71
A46G A74U G77A G113U	-3.68
G47A G113C G122A	-4.01
A46U C53U A91U G113U U130A	-4.7

Variant	polymerase ribozyme fitness (log ratio)
G47A G120A	-0.422
A46U C85U	-2.5
A46G G61U	-0.252
A46G A66G	-1.48
G47A G60A C124G	0.279
A46U C62G G110A	-5.8
A46U C88U A103G	-7.61
G47A G57C A121U G135U	1.05
G47A U81G C82U C86G	-1.44
A46G A121U U126A	0.577
G47A C115A	-1.2
A46U C64U	-2.1
A46C G69A	-2.87
A46U G52U	-2.32
G47A C64U C98U	-2.79
A46U G63A C86U	-2.45
A46U A50U G61U U125C	-4.52
A46U C80U A103U A121U G135A	-5.5
G47C C70U G120C	-0.515
A46U A74U C82A	-1.61
G47A G51A U130A	-4.79
G47A C62A C70A	-4.43
A46U C73G A74G U96A	-4.63
G47A G71U C104A	-2.85

Variant	polymerase ribozyme fitness (log ratio)
G47A A50U G61U	-0.935
A46G C82U U106A	-0.902
A46G A83G	-0.884
A46U C94G	-2.36
G47A U87A U96A	-2.62
A46U U112A C123A	-1.26
A46C G69A C72A	-4.32
A46C G117A	-2.35
G47C C70A	-5.04
A46U G71A C85G G122A	-5.93
G47A A111U	-4.17
G47A U78C G113U	-4.27
A46C C80A	-3.23
A46G G57A A83G U112C	0.022
G47C A111C A118C	-2.36
A46C G48A G51A	-3.51
A46C C76G G122A	-1.33
A46G G69U U78A C94U C115A G127C	-2.24
A46U G120A G135A	-0.18
A46U G47A C49U G61C C72U C85G	-2.44
A46U C72G A83G G117A U133G	-3.93
A46U C114A	-2.92
A46U U78C	-1.07
